Results: the supplement of paper PMC10266784

B1: library; numbered along this chain (parent)
chain: MAAAAAAAAEQQSSNGPVKKSMREKAVERRSVNKEHNSNFKAGYIPIDEDRLHKTGLRGRKGNLAICVIILLFILAVINLIITLVIWAVIRIGPNGCDSMEFHESGLLRFKQVSDMGVIHPLYKSTVGGRRNENLVITGNNQPIVFQQGTTKLSVENNKTSITSDIGMQFFDPRTQNILFSTDYETHEFHLPSGVKSLNVQKASTERITSNATSDLNIKVDGRAIVRGNEGVFIMGKTIEFHMGGNMELKAENSIILNGSVMVSTTRLPSSSSGDQLGSGDWVRYKLCMCADGTLFKVQVTSQNMGCQISDNPCGNTH

Variants of: B1
Test: SGCB cell-surface expression functional score (HA stain, bin4 vs bin1, normalised to synonymous) (log10 ratio); higher = more cell-surface SGCB (functional)
Method in brief: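 Human beta-sarcoglycan, tagged with HA and fused to YFP, was built into codon-saturation libraries and delivered by lentivirus at MOI <0.1 into HEK293 cells that stably express alpha-, gamma- and delta-sarcoglycan. After 72 hours, YFP-positive cells were sorted and grown for 5–7 days, then stained on ice with Alexa Fluor 647 anti-HA, fixed, sorted into four 5% intensity bins and amplicon-sequenced. Each variant's functional score is the log ratio of its frequency in the highest bin to that in the lowest bin, taken as the median across codons and transductions. Transductions were done in duplicate, and synonymous variants were scaled per section to mean 0, SD 0.5.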

SGCB cell-surface expression functional score (log10) of substitutions, site by site:
Y44: L 0.55; A 0.04; W 0.07; M 0.39; C 0.8; K 0.04; H 0.01; V 0.64; D 0.53; E 0.75; F 0.02; P 0.61; S 0.14; I 0.42; Q 0.8; N -0.24; G 0.59; R 0.08; T 0.39
G43: A 0.25; T 0.05; N 0.18; V 0.07; M -0.74; H 0.33; S 0.34; I -0.07; L -0.21; F -0.52; K 0.2; Q 0.32; W 0.34; Y -0.59; C -0.02; R 0.51; E 0.18; D 0.22; P 0.76
N39: W -0.81; Y -0.08
I47: S 0.29; L -0.14; M 0.47; F -0.49; K 0.52; C 0.31; W -0.62; T 0.58; D 0.59; H 0.63; R -0.19; E 0.72; Y 0.65; A 0.17; P 0.47; G 0.36; Q 0.68; N 0.73; V 0.12
P46: C 0.44; Y 0.03; L -0.2; T 0.21; A -0.03; F 0.22; H 0.31; W -0.33; R -0.18; K -0.07; Q 0.28; E 0.1; I 0.27; S 0.15; D -0.14; V -0.23; G 0.65; N 0.18; M 0
F40: K 0.55; E 0.01; P -0.13; M -0.28; A 0.18; Y 0.49; D 0.12; S 0.16; R -0.05; N -0.16; L -0.13; G -0.49; H -0.44; V 0.27; T 0.19; W -0.21; C 0.25; Q 0.03; I 0.24
I45: D 0.9; T 0.15; W 0.91; L -0.03; Q -0.67; R -0.17; G -0.04; C -0.09; M 0.43; H 0.03; A 0.33; K -0.41; Y 0.68; F -0.02; S -0.08; E 0.23; V 0.48; P 0.52; N 0.15
D48: A 0.6; K -0.09; N 0.13; E -0.17; Q -0.36; C 0.13; G -0.07; I 0.19; M 0.77; P 0.18; H 0.33; F 0.37; L 0.18
K41: S 0.28; W 0.02; F -0.47; P 0.21; V 0.04; N 0.25; I -0.28; D -0.08; G -0.27; Q 0.4; C -0.2; E 0.61; R -0.25; M 0.55; L 0.1; T 0.26; A 0.77; H 0.22; Y -0.07
A42: L -0.02; T 0.1; E 0.71; K 0.18; Q -0.07; C 0.21; P 0.02; F -0.42; G 0.22; Y -0.17; N -0.67; R -0.08; I -0.45; W 0.29; M 0.33; V -0.08; D -0.28; S 0.1; H -0.08
